Assay results as given in patent US20110263454A1, “Methods of Identifying Functional Characteristics of Promoters, Transcription Modifying Proteins and Transcription Modulating Agents” (Salk Institute for Biological Studies, priority 2008, published 2011).

What was measured:
[1] = test system: hPPARg2 promoter; test: NHR-promoter luciferase screen, hPPARg2 promoter; assay type: cell-based, human; settings: for Luc. act., normalized to lacZ / Normalized Luc. act., normalized to control: PPARG2 promoter, hormone receptor with or without its ligand; for Normalized Luc. act., normalized to control: relative to control; for Results of assays of transcription factor (+/- ligand) with hPPARg2: Table 6d, luciferase activity relative to control (control = 1.00)
How it was run: (§1)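 CV-1 cells were co-transfected with 50 ng NHR (homodimer or NHR/RXR heterodimer), 100 ng promoter-luciferase construct and 50 ng LacZ. Luciferase was normalized to LacZ and to a no-NHR/no-ligand control.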

[2] = test system: mGhrelin promoter; test: NHR-promoter luciferase screen, mGhrelin promoter; assay type: cell-based, mouse; settings: for Luc. act., normalized to lacZ / Normalized Luc. act., normalized to control: Table 8, mGhrelin; for Results of assays of transcription factor (+/- ligand) with mGhrelin: Table 6d, luciferase activity relative to control (control = 1.00)
How it was run: as §1

[3] = test system: hMyoD promoter; test: NHR-promoter luciferase screen, hMyoD promoter; assay type: cell-based, human; settings: for Luc. act., normalized to lacZ / Normalized Luc. act., normalized to control: MyoD promoter reporter, co-transfected HR, without or with its ligand; for Normalized Luc. act., normalized to control: relative to control; for luciferase activity normalized to lacZ activity and to a control, hMyoD: hMyoD promoter-luciferase, CV-1 cells, NHR +/- ligand, control = 1.00
How it was run: as §1

[4] = test system: hMDR1 promoter; test: NHR-promoter luciferase screen, hMDR1 promoter; assay type: cell-based, human; settings: for Luc. act., normalized to lacZ / Normalized Luc. act., normalized to control: MDR1 promoter, HR/ligand component; for hMDR1 promoter reporter activity: transcription factor +/- ligand, control = 1.00
How it was run: as §1

[5] = test system: mLeptin promoter; test: NHR-promoter luciferase screen, mLeptin promoter; assay type: cell-based, mouse; settings: for Luc. act., normalized to lacZ / Normalized Luc. act., normalized to control: Table 7, mLeptin; for Results of assays of transcription factor (+/- ligand) with mLeptin: Table 6d, luciferase activity relative to control (control = 1.00)
How it was run: as §1

[6] = test system: hG6PD promoter; test: NHR-promoter luciferase screen, hG6PD promoter; assay type: cell-based, human; settings: for Luc. act., normalized to lacZ / Normalized Luc. act., normalized to control: G6PD promoter reporter, co-transfected HR, without or with its ligand; for Normalized Luc. act., normalized to control: relative to control; for luciferase activity normalized to lacZ activity and to a control, hG6PD: hG6PD promoter-luciferase, CV-1 cells, NHR +/- ligand, control = 1.00
How it was run: as §1

B1: RORb: RAR-related Orphan Receptor β (NR1F2), cDNA driver (protein, UniProt Q92753 1-470, looked up)
Nuclear receptor ROR-beta: MCENQLKTKADATAQIEVIPCKICGDKSSGIHYGVITCEGCKGFFRRSQQNNASYSCPRQRNCLIDRTNRNRCQHCRLQKCLALGMSRDAVKFGRMSKKQRDSLYAEVQKHQQRLQEQRQQQSGEAEALARVYSSSISNGLSNLNNETSGTYANGHVIDLPKSEGYYNVDSGQPSPDQSGLDMTGIKQIKQEPIYDLTSVPNLFTYSSFNNGQLAPGITMTEIDRIAQNIIKSHLETCQYTMEELHQLAWQTHTYEEIKAYQSKSREALWQQCAIQITHAIQYVVEFAKRITGFMELCQNDQILLLKSGCLEVVLVRMCRAFNPLNNTVLFEGKYGGMQMFKALGSDDLVNEAFDFAKNLCSLQLTEEEIALFSSAVLISPDRAWLIEPRKVQKLQEKIYFALQHVIQKNHLDDETLAKLIAKIPTITAVCNLHGEKLQVFKQSHPEIVNTLFPPLYKELFNPDCATGCK
Luc. act., normalized to lacZ [1]: 1.8
Normalized Luc. act., normalized to control [1]: 0.9
Results of assays of transcription factor (+/- ligand) with hPPARg2 [1]: 0.89
Luc. act., normalized to lacZ [2]: 89.1
Normalized Luc. act., normalized to control [2]: 1.7
Results of assays of transcription factor (+/- ligand) with mGhrelin [2]: 1.70
Luc. act., normalized to lacZ [3]: 73.9
Normalized Luc. act., normalized to control [3]: 1.2
luciferase activity normalized to lacZ activity and to a control, hMyoD [3]: 1.17
Luc. act., normalized to lacZ [4]: 0.2
Normalized Luc. act., normalized to control [4]: 0.6
hMDR1 promoter reporter activity [4]: 0.58
Luc. act., normalized to lacZ [5]: 3.3
Normalized Luc. act., normalized to control [5]: 1.1
Results of assays of transcription factor (+/- ligand) with mLeptin [5]: 1.12
Luc. act., normalized to lacZ [6]: 51.1
Normalized Luc. act., normalized to control [6]: 1.4
luciferase activity normalized to lacZ activity and to a control, hG6PD [6]: 1.37

B2: RXRb: Retinoic X Receptor β (NR2B2), cDNA driver (protein, UniProt P28702 1-533, looked up)
Retinoic acid receptor …: MSWAARPPFLPQRHAAGQCGPVGVRKEMHCGVASRWRRRRPWLDPAAAAAAAVAGGEQQTPEPEPGEAGRDGMGDSGRDSRSPDSSSPNPLPQGVPPPSPPGPPLPPSTAPSLGGSGAPPPPPMPPPPLGSPFPVISSSMGSPGLPPPAPPGFSGPVSSPQINSTVSLPGGGSGPPEDVKPPVLGVRGLHCPPPPGGPGAGKRLCAICGDRSSGKHYGVYSCEGCKGFFKRTIRKDLTYSCRDNKDCTVDKRQRNRCQYCRYQKCLATGMKREAVQEERQRGKDKDGDGEGAGGAPEEMPVDRILEAELAVEQKSDQGVEGPGGTGGSGSSPNDPVTNICQAADKQLFTLVEWAKRIPHFSSLPLDDQVILLRAGWNELLIASFSHRSIDVRDGILLATGLHVHRNSAHSAGVGAIFDRVLTELVSKMRDMRMDKTELGCLRAIILFNPDAKGLSNPSEVEVLREKVYASLETYCKQKYPEQQGRFAKLLLRLPALRSIGLKCLEHLFFFKLIGDTPIDTFLMEMLEAPHQLA
Luc. act., normalized to lacZ [1]: 1.5
Normalized Luc. act., normalized to control [1]: 0.8
Results of assays of transcription factor (+/- ligand) with hPPARg2 [1]: 0.75
Luc. act., normalized to lacZ [2]: 62.9
Normalized Luc. act., normalized to control [2]: 1.2
Results of assays of transcription factor (+/- ligand) with mGhrelin [2]: 1.20
Luc. act., normalized to lacZ [3]: 54.3
Normalized Luc. act., normalized to control [3]: 0.9
luciferase activity normalized to lacZ activity and to a control, hMyoD [3]: 0.86
Luc. act., normalized to lacZ [4]: 0.1
Normalized Luc. act., normalized to control [4]: 0.3
hMDR1 promoter reporter activity [4]: 0.28
Luc. act., normalized to lacZ [5]: 1.5
Normalized Luc. act., normalized to control [5]: 0.5
Results of assays of transcription factor (+/- ligand) with mLeptin [5]: 0.50
Luc. act., normalized to lacZ [6]: 23.1
Normalized Luc. act., normalized to control [6]: 0.6
luciferase activity normalized to lacZ activity and to a control, hG6PD [6]: 0.62

B3: HNF4g: Hepatocyte Nuclear Factor γ (NR2A2), cDNA driver (protein, UniProt Q14541 1-408, looked up)
Hepatocyte nuclear factor …: MNTTDNGVNCLCAICGDRATGKHYGASSCDGCKGFFRRSIRKSHVYSCRFSRQCVVDKDKRNQCRYCRLRKCFRAGMKKEAVQNERDRISTRRSTFDGSNIPSINTLAQAEVRSRQISVSSPGSSTDINVKKIASIGDVCESMKQQLLVLVEWAKYIPAFCELPLDDQVALLRAHAGEHLLLGATKRSMMYKDILLLGNNYVIHRNSCEVEISRVANRVLDELVRPFQEIQIDDNEYACLKAIVFFDPDAKGLSDPVKIKNMRFQVQIGLEDYINDRQYDSRGRFGELLLLLPTLQSITWQMIEQIQFVKLFGMVKIDNLLQEMLLGGASNDGSHLHHPMHPHLSQDPLTGQTILLGPMSTLVHADQISTPETPLPSPPQGSGQEQYKIAANQASVISHQHLSKQKQL
Luc. act., normalized to lacZ [1]: 1.5
Normalized Luc. act., normalized to control [1]: 0.8
Results of assays of transcription factor (+/- ligand) with hPPARg2 [1]: 0.76
Luc. act., normalized to lacZ [2]: 58.1
Normalized Luc. act., normalized to control [2]: 1.1
Results of assays of transcription factor (+/- ligand) with mGhrelin [2]: 1.11
Luc. act., normalized to lacZ [3]: 67.2
Normalized Luc. act., normalized to control [3]: 1.1
luciferase activity normalized to lacZ activity and to a control, hMyoD [3]: 1.06
Luc. act., normalized to lacZ [4]: 0.2
Normalized Luc. act., normalized to control [4]: 0.8
hMDR1 promoter reporter activity [4]: 0.75
Luc. act., normalized to lacZ [5]: 2.4
Normalized Luc. act., normalized to control [5]: 0.8
Results of assays of transcription factor (+/- ligand) with mLeptin [5]: 0.82
Luc. act., normalized to lacZ [6]: 42.1
Normalized Luc. act., normalized to control [6]: 1.1
luciferase activity normalized to lacZ activity and to a control, hG6PD [6]: 1.13

B4: RXRg: Retinoic X Receptor γ (NR2B3), cDNA driver (protein, UniProt P48443 1-463, looked up)
Retinoic acid receptor …: MYGNYSHFMKFPAGYGGSPGHTGSTSMSPSAALSTGKPMDSHPSYTDTPVSAPRTLSAVGTPLNALGSPYRVITSAMGPPSGALAAPPGINLVAPPSSQLNVVNSVSSSEDIKPLPGLPGIGNMNYPSTSPGSLVKHICAICGDRSSGKHYGVYSCEGCKGFFKRTIRKDLIYTCRDNKDCLIDKRQRNRCQYCRYQKCLVMGMKREAVQEERQRSRERAESEAECATSGHEDMPVERILEAELAVEPKTESYGDMNMENSTNDPVTNICHAADKQLFTLVEWAKRIPHFSDLTLEDQVILLRAGWNELLIASFSHRSVSVQDGILLATGLHVHRSSAHSAGVGSIFDRVLTELVSKMKDMQMDKSELGCLRAIVLFNPDAKGLSNPSEVETLREKVYATLEAYTKQKYPEQPGRFAKLLLRLPALRSIGLKCLEHLFFFKLIGDTPIDTFLMEMLETPLQIT
Luc. act., normalized to lacZ [1]: 1.5
Normalized Luc. act., normalized to control [1]: 0.7
Results of assays of transcription factor (+/- ligand) with hPPARg2 [1]: 0.74
Luc. act., normalized to lacZ [2]: 59.0
Normalized Luc. act., normalized to control [2]: 1.1
Results of assays of transcription factor (+/- ligand) with mGhrelin [2]: 1.13
Luc. act., normalized to lacZ [3]: 67.6
Normalized Luc. act., normalized to control [3]: 1.1
luciferase activity normalized to lacZ activity and to a control, hMyoD [3]: 1.07
Luc. act., normalized to lacZ [4]: 0.2
Normalized Luc. act., normalized to control [4]: 0.7
hMDR1 promoter reporter activity [4]: 0.65
Luc. act., normalized to lacZ [5]: 2.1
Normalized Luc. act., normalized to control [5]: 0.7
Results of assays of transcription factor (+/- ligand) with mLeptin [5]: 0.70
Luc. act., normalized to lacZ [6]: 43.7
Normalized Luc. act., normalized to control [6]: 1.2
luciferase activity normalized to lacZ activity and to a control, hG6PD [6]: 1.17

B5: TR2: Testicular Orphan Nuclear Receptor 2 (NR2C1), cDNA driver (protein, UniProt P13056 1-603, looked up)
Nuclear receptor subfamily 2 …: MATIEEIAHQIIEQQMGEIVTEQQTGQKIQIVTALDHNTQGKQFILTNHDGSTPSKVILARQDSTPGKVFLTTPDAAGVNQLFFTTPDLSAQHLQLLTDNSPDQGPNKVFDLCVVCGDKASGRHYGAVTCEGCKGFFKRSIRKNLVYSCRGSKDCIINKHHRNRCQYCRLQRCIAFGMKQDSVQCERKPIEVSREKSSNCAASTEKIYIRKDLRSPLTATPTFVTDSESTRSTGLLDSGMFMNIHPSGVKTESAVLMTSDKAESCQGDLSTLANVVTSLANLGKTKDLSQNSNEMSMIESLSNDDTSLCEFQEMQTNGDVSRAFDTLAKALNPGESTACQSSVAGMEGSVHLITGDSSINYTEKEGPLLSDSHVAFRLTMPSPMPEYLNVHYIGESASRLLFLSMHWALSIPSFQALGQENSISLVKAYWNELFTLGLAQCWQVMNVATILATFVNCLHNSLQQDKMSTERRKLLMEHIFKLQEFCNSMVKLCIDGYEYAYLKAIVLFSPDHPSLENMEQIEKFQEKAYVEFQDYITKTYPDDTYRLSRLLLRLPALRLMNATITEELFFKGLIGNIRIDSVIPHILKMEPADYNSQIIGHSI
Luc. act., normalized to lacZ [1]: 1.9
Normalized Luc. act., normalized to control [1]: 1.0
Results of assays of transcription factor (+/- ligand) with hPPARg2 [1]: 0.95
Luc. act., normalized to lacZ [2]: 63.2
Normalized Luc. act., normalized to control [2]: 1.2
Results of assays of transcription factor (+/- ligand) with mGhrelin [2]: 1.21
Luc. act., normalized to lacZ [3]: 83.1
Normalized Luc. act., normalized to control [3]: 1.3
luciferase activity normalized to lacZ activity and to a control, hMyoD [3]: 1.31
Luc. act., normalized to lacZ [4]: 0.3
Normalized Luc. act., normalized to control [4]: 1.0
hMDR1 promoter reporter activity [4]: 1.01
Luc. act., normalized to lacZ [5]: 3.4
Normalized Luc. act., normalized to control [5]: 1.1
Results of assays of transcription factor (+/- ligand) with mLeptin [5]: 1.15
Luc. act., normalized to lacZ [6]: 45.5
Normalized Luc. act., normalized to control [6]: 1.2
luciferase activity normalized to lacZ activity and to a control, hG6PD [6]: 1.22
